The record followed here is publication PMC6949295 (2020).

To fix the notation:
B1: Exo70-Flag [rat] / HA-Exo84 [not stated] (parent complex)
chain 1: MIPPQEASARRREIEDKLKQEEETLSFIRDSLEKSDQLTKNMVSILSSFESRLMKLENSIIPVHKQTENLQRLQENVEKTLSCLDHVISYYHVASDTEKIIREGPTGRLEEYLGSMAKIQKAVEYFQDNSPDSPELNKVKLLFERGKESLESEFRSLMTRHSKVISPVLVLDLISADDELEVQEDVVLEHLPESVLQDVIRISRWLVEYGRNQDFMNVYYQIRSSQLDRSIKGLKEHFRKSSSSSGVPYSPAIPNKRKDTPTKKPIKRPGRDDMLDVETDAYIHCVSAFVRLAQSEYQLLMGIIPEHHQKKTFDSLIQDALDGLMLEGENIVSAARKAIIRHDFSTVLTVFPILRHLKQTKPEFDQVLQGTAASTKNKLPGLITSMETIGAKALEDFADNIKNDPDKEYNMPKDGTVHELTSNAILFLQQLLDFQETAGAMLASQETSSSATSYNSEFSKRLLSTYICKVLGNLQLNLLSKSKVYEDPALSAIFLHNNYNYILKSLEKSELIQLVAVTQKTAERSYREHIEQQIQTYQRSWLKVTDYIAEKNLPVFQPGVKLRDKERQMIKERFKGFNDGLEELCKIQKAWAIPDTEQRDKIRQAQKSIVKETYGAFLHRYSSVPFTKNPEKYIKYRVEQVGDMIDRLFDTSA
chain 2: MSDSGASRLRRQLESGGFEARLYVKQLSQQSDGDRDLQEHRQRVQALAEETAQNLKRNVYQNYRQFIETAREISYLESEMYQLSHLLTEQKSSLESIPLALLPAAAAGASTGEDTAGAGPRERGAAQAGFLPGPAGVPREGPGTGEEGKQRTLTTLLEKVEGCRDLLETPGQYLVYNGDLVEYEADHMAQLQRVHGFLMNDCLLVATWLPQRRGMYRYNALYPLDRLAVVNVKDNPPMKDMFKLLMFPESRIFQAENAKIKREWLEVLEETKRALSDKRRREQEEAAALRAPPPVTSKGSNPFEDEAEEELATPEAEEEKVDLSMEWIQELPEDLDVCIAQRDFEGAVDLLDKLNHYLEDKPSPPSVKELRAKVDERVRQLTEVLVFELSPDRSLRGGPKATRRAVSQLIRLGQCTKACELFLRNRAAAVHTAIRQLRIEGATLLYIHKLCHVFFTSLLETAREFETDFAGTDSGCYSAFVVWARSAMGMFVDAFSKQVFDSKESLSTAAECVKVAKEHCQQLGEIGLDLTFIIHALLVKDIQGALLSYKEIIIEATKHRNSEEMWRRMNLMTPEALGKLKEEMRSCGVSNFEQYTGDDCWVNLSYTVVAFTKQTMGFLEEALKLYFPELHMVLLESLVEVILVAVQHVDYSLRCEQDPEKKTFIRQNASFLYDTVLPVVERRFEEGVGKPAKQLQDLRNASRLLRVNPESTTSVV

The variants in this test derive from B1. The experiment in a line: co-immunoprecipitation (IP: HA, blot: Flag); 293T cells; parent: 0.13.
Turning to chain 1 S47D, chain 1 S59D, chain 1 S89D, the response came to 0 relative band intensity.
